± gives the standard deviation of the averaged measurements.
These sequences were tested on Saccharomyces cerevisiae (assay: protein stability index of tFT-peptide fusion (C-terminal peptide) (PSI (0-1 scale)); higher = more stable (slower turnover)). Details: genetic background: wild type; temperature: 30 C.
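Further: PSI is a weighted mean of sequencing reads over stability bins, variants kept only with over 10 reads, mCherry proximal and sfGFP distal, peptide attached via GGGS linker.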

Sequence	protein stability index
PRSSHHPLPSPP	0.676 ± 0.071
RSPPYRPPCLRP	0.722 ± 0.02
KRRSHRQHSRRR	0.559 ± 0.032
RCEGNGKRASTE	0.632 ± 0.031
PTGCPPGVTPCL	0.681 ± 0.022
LPVSGLRAAGAM	0.7154 ± 0.0034
PPVISAPIPLAP	0.688 ± 0.052
KLKACRIHEENR	0.676 ± 0.019
GRLLCFLFCCSS	0.603 ± 0.035
GGEVFGGRCSAV	0.734 ± 0.12
ALPIVPDVCFSP	0.679 ± 0.051
YKGQVKKNNPQC	0.726 ± 0.033
KRFQDRPRPGAH	0.687 ± 0.044
QTPNRTPIRPPP	0.716 ± 0.0093
GICDAVLFTMLV	0.682 ± 0.068
ILFSILHLLSYL	0.6426 ± 0.0039
GGVGSMITWRVG	0.689 ± 0.082
PPPAPPPSPPSN	0.675 ± 0.044
MGLVVGILVGHR	0.647 ± 0.098
PPLPPPSVRPSS	0.63 ± 0.028
CCLASVSADKVV	0.703 ± 0.025
FTPPPPPPPPVL	0.6691 ± 0.0051
IHPKREPRDNNI	0.679 ± 0.015
SSFNSCQFVLSY	0.563 ± 0.011
PPPRPPPASPVP	0.708 ± 0.076
QLSLSTPAGRLI	0.6886 ± 0.0068

Sequence	protein stability index
LSTPFFFVPLTL	0.621 ± 0.007
GEQGVLARSDRI	0.589 ± 0.025
RCYTLFLGRSRV	0.68037 ± 0.00022
RRGAVWDLVGDG	0.571 ± 0.029
LPPPPLPPHPPL	0.748 ± 0.067
KILNIKCLLANK	0.686 ± 0.017
LLSVVLPDSSLP	0.738 ± 0.065
HLFNLVRIRTDL	0.703 ± 0.049
SGRVELGVVGGG	0.695 ± 0.04
FSVHVPPFPPVP	0.654 ± 0.038
SFSAFRCDPAEM	0.676 ± 0.011
ASIFPTLKLTYL	0.713 ± 0.011
CSIVGLGACVSW	0.669 ± 0.0083
PPSLLRPYPLLS	0.66 ± 0.028
RSLGLVGWGFWG	0.762 ± 0.12
WVSGLVSIGACL	0.683 ± 0.0076
GVNLFEIVRSVT	0.7169 ± 0.0012
YGLVSFVCFNGG	0.679 ± 0.042
KSYRVGKMAAQR	0.683 ± 0.012
SGFQIRVPVFMG	0.619 ± 0.0095
GVAKRGREGCWS	0.569 ± 0.065
RNRNKKIIREKK	0.7 ± 0.033
DKPVDTRPGSPG	0.66 ± 0.031
SSRLVFFLPSLR	0.6966 ± 0.0022
ESRGLVRRLGTG	0.693 ± 0.058
SLGGFLPPESFV	0.708 ± 0.049

Sequence	protein stability index
GGGGFQVAVGCR	0.714
PPHPPNPLPTPQ	0.829 ± 0.17
GPPTASPLVAPA	0.621 ± 0.02
GARERRRRRRRP	0.713 ± 0.025
HFAAVFATSISG	0.675 ± 0.02
EARFLWLTFLFG	0.546 ± 0.068
SGVFARIKRTVV	0.489 ± 0.072
HMLRLIDFQSIV	0.685 ± 0.042
PPPRPPSPLSLA	0.643 ± 0.1
PLPSLPPSLAPW	0.692 ± 0.078
LVIVFDLGNMLH	0.538 ± 0.038
PFHSPLMPAHSH	0.764 ± 0.049
CRPVHVNLPFYF	0.5884 ± 0.00092
RKKRNKQENETK	0.748 ± 0.013
LTPLPSRPPPLP	0.683 ± 0.087
RKIIIINLQKIK	0.586 ± 0.024
RVRRWGSSTLVG	0.676 ± 0.041
WSRSGGGEKYGV	0.69 ± 0.0094
RFDFSVTPHLGF	0.668 ± 0.036
TRCKLALEKLVG	0.5986 ± 0.0015
RNCELQSLSSTL	0.732 ± 0.036
VPVSNLCERTAG	0.648 ± 0.011
SLLTLVIPTLFS	0.665 ± 0.0048
ERLACRFRTVVM	0.595 ± 0.053
RINKIKRKKRIK	0.618 ± 0.062
RHYKNKGQTRVR	0.699 ± 0.051

Sequence	protein stability index
DGPWGGVRAGEV	0.717 ± 0.063
TYANKVKVHCGI	0.651 ± 0.059
RLFSFPPPPTPP	0.705 ± 0.011
ASRFSLPLLSLL	0.71 ± 0.14
GKSREKEKESRE	0.658 ± 0.032
PVSPLPGPPPPP	0.7681 ± 0.0053
WRMGCSVRGVVG	0.693 ± 0.055
FAKELSLRSFSA	0.814 ± 0.04
LPPTPSSRGPHS	0.669 ± 0.019
SNPGGYCPQGVP	0.731 ± 0.024
SVLPELHAVPLF	0.679 ± 0.008
PPLPPLPAPSPV	0.652 ± 0.021
GLSSLVLRFFLP	0.663 ± 0.025
HSIPWTRTRPGC	0.687 ± 0.016
KQWCFLKWGVNV	0.558 ± 0.058
SLPPPSSPPPPL	0.692 ± 0.089
MFTFIQRPVAQV	0.6357 ± 0.0054
KSAGLKPNWSTT	0.696 ± 0.065
PPLLPPPHPFPP	0.6656 ± 0.0053
QNGNRPCCEKAW	0.681 ± 0.021
SPPTEPFPDPTH	0.6628 ± 0.0053
GGRREGRGFNDG	0.676 ± 0.025
PISCVLGFAFPS	0.708 ± 0.1
